Values of other authors, collected in publication PMC9741594.

Target: T1, Internalin A (on whole Listeria monocytogenes cells) (Listeria monocytogenes (strain not given in the material)) (UniProt P0DJM0)
T1 sequence: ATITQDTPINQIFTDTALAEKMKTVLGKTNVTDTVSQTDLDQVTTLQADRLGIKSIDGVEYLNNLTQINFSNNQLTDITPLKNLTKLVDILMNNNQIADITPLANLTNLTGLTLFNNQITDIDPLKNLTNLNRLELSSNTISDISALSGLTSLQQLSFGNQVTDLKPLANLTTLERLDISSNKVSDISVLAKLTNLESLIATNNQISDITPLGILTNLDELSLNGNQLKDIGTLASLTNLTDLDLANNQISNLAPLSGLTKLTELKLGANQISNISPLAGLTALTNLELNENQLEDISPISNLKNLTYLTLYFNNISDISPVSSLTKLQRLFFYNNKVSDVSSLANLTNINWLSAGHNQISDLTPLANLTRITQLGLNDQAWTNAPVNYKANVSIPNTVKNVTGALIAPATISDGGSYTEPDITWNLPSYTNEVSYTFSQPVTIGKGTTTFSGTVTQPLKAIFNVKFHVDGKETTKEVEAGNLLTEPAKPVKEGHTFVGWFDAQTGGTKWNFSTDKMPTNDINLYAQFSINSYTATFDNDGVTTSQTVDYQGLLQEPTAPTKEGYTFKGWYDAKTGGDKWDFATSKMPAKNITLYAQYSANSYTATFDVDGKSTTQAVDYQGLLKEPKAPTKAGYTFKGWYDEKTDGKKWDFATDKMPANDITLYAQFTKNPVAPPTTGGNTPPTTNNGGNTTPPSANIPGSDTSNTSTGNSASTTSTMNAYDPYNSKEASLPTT
Experiment: not stated (cited)
Conditions: printed as KD = 103 CFU/mL, read as 10^3; whole-cell units; 5' amine (immobilized by carbodiimide chemistry on ALG-thiomer/Pt); 5' thiol version also made; PBS, whole L. monocytogenes cells, 15 min capture at pH 7 (extended brush), EIS at pH 3 (collapsed), room temperature; also chicken broth

ATCCATGGGGCGGAGATGAGGGGGAGGAGGGCGGGTACCCGGTTGAT [A8 anti-Internalin A aptamer]
Kd: 1000 CFU/mL
